{"source": "patent US20180021429A1", "about": "“ANTICANCER AGENTS OR ANTIMETASTATIC AGENTS USING FSTL1 AND COMBINATION DRUG THEREOF” (PHARMA FOODS INTERNATIONAL CO., LTD., priority 2015, published 2018)", "key": {"[1]": {"test_system": "human pancreatic cancer cell line Panc1", "test": "Action on Panc1 under FSTL1 stimulation (Example 26)", "type": "cell-based", "conditions": "Panc1 stimulated with FSTL1 for 3 days, antibody 5 μg/ml; FIG. 114B", "source_text": "Specifically, the influence of the anti-FSTL1 antibody on proliferative capacity and invasive capacity was studied using various human tumor cells, regardless of the presence or absence of the expression of Snail or FSTL1. […] After culture for 3 days, the number of cells per culture system was counted to evaluate the proliferative capacity of the cells. […] Then, the number of cells that permeated the membranes was counted under a microscope to evaluate the invasive capacity of the cells.\nNext, in order to examine how surrounding tumor cells were changed in a cancer microenvironment by receiving FSTL1 produced by Snail/FSTL1-expressing cells, and how the anti-FSTL1 antibody acts thereon, a human pancreatic cancer cell line Panc1 confirmed to express Snail or FSTL1 only slightly was stimulated with FSTL1 for 3 days. The anti-FSTL1 antibody (#6-55, 5 μg/ml) or a control antibody (aHema, 5 μg/ml) was added to this culture system, and subsequent change in cell function was analyzed in the same way as in the preceding paragraph. […]"}, "[2]": {"test_system": "mouse colorectal cancer CT26 cell-transplanted models", "test": "In vivo colorectal cancer model (Example 20)", "design": "species or system BALB/c mice", "conditions": "intraperitoneal 10 mg/kg on days 4 and 7", "experimental": "(§1) Procedures and methods of the experiment were basically performed under substantially the same conditions as in the bone metastasis model experiments of Examples 17 to 19 except that bone metastasis was not evaluated. Specifically, drug efficacy evaluation was conducted using mouse tumor models other than Snail-positive tumor bone metastasis models. The drug efficacy of the anti-FSTL1 antibody was evaluated using cancer-bearing models of BALB/c mice different in strain from the C57BL/6 mice used in the preceding tests. The test was conducted by changing only the amount of tumor implanted, antibody administration timing, and assay timing. • Day 0: transplantation of tumor cells (5×10^5 cells subcutaneously & 5×10^5 cells intravenously) Days 4 and 7: intraperitoneal administration of the antibody (10 mg/kg) • Day 14: drug efficacy evaluation (subcutaneous tumor growth (FIG. 14A) and lung metastasis (FIG. 14B))\nFor lung metastasis, the number of metastatic nodules in the lung was macroscopically counted. The tumor volumes of the mice were measured 7, 11, and 14 days after tumor implantation."}, "[3]": {"test_system": "mouse breast cancer 4T1 cell-transplanted models", "test": "In vivo breast cancer model (Example 21)", "design": "species or system BALB/c mice", "conditions": "intraperitoneal 10 mg/kg on days 4 and 7; day 14", "experimental": "as §1, with “performed according to Examples 17 to 20” for “performed”, “20. Drug” for “19 except that bone metastasis was not evaluated. Specifically, drug”, “Changes were made as follows.” for “The test was conducted by changing only the amount of tumor implanted, antibody administration timing, and assay timing.”, “growth)” for “growth (FIG. 14A) and lung metastasis (FIG. 14B))”\nThe tumor volumes of the mice were measured 4, 7, 11, and 14 days after tumor implantation."}, "[4]": {"test_system": "mouse colorectal cancer CT26 cells", "test": "Mouse colorectal cancer CT26 cell-transplanted model (Example 20)", "type": "in vivo", "experimental": "as §1, with “108A)” for “14A)”, “108B)) For lung metastasis, the number of metastatic nodules in the lung was macroscopically counted. The tumor volumes of the mice were measured 7, 11, and 14 days after tumor implantation.” for “14B))”"}, "mouse bone marrow cells": {"test_system": "mouse bone marrow cells", "test": "Ability of FSTL1-induced MSCs to differentiate into adipocytes (Examples 14, 16)", "type": "cell-based", "conditions": "Example 16; antibody 20.0-2.5 μg/ml; FIG. 104B", "experimental": "The antibody clone (#6-55, #7, #10, #13, or #22) was evaluated for its activity by the same testing method as in Example 13. #6-55 was set as a positive control for activity. […] Mouse bone marrow cells were supplemented with FSTL1 and the predetermined concentration of each antibody and cultured for 8 days. 5×10^4 cells/well were separated from each culture system and evaluated for the ability to differentiate into adipocytes using an adipocyte differentiation reagent included in “Mesenchymal Stem Cell Functional Identification Kit (R&D Systems, Inc., Cat. No. SC010)”. For the evaluation method, the cells were supplemented with the adipocyte differentiation reagent and cultured for 8 days. Then, adipocytes per culture system were counted under a microscope for evaluation. […]\nIn the same way as in Example 15, mouse bone marrow cells were supplemented with FSTL1 and the predetermined concentration of each antibody and cultured for 8 days. 5×10^4 cells/well were separated from each culture system and evaluated for the ability to differentiate into adipocytes using an adipocyte differentiation reagent included in “Mesenchymal Stem Cell Functional Identification Kit (R&D Systems, Inc., Cat. No. SC010)”. […] Then, adipocytes per culture system were counted under a microscope for evaluation (FIG. 104B). […]"}}, "data": [{"molecule": "#6-55: chicken-mouse chimeric anti-FSTL1 antibody clone; variable regions SEQ ID NO: 783 (light), 785 (heavy) (antibody, V domains shown, mouse constant regions) VH: AVTLDESGGGLQTPGGALSLVCKGSGFTFTSVTMQWVRQAPGKGLEWVASVCSGSSTYYAPAVKGRATISRDNGQSTVRLQLSNLRPEDTGTYYCAKIAGRARWSCTSAAYNIDAWGHGTEVIVSS VL: ASTQPSSVSAIPGETVKITCSGGGNNYGWYQQRSPGSAPVTVIYYNDNRPSNIPSRFSGSTSGSTSTLTITGVQADDEAIYYCGSWDSNTDSGIFGAGTTLTVL", "values": [{"measurement": "cell growth", "setting": "[1]", "value": "reduced"}, {"measurement": "enhancement of invasive capacity by FSTL1", "setting": "[1]", "value": "canceled"}, {"measurement": "growth and lung metastasis of CT26 subcutaneous tumor", "setting": "[2]; day 14", "value": "very strongly suppressed the growth and lung metastasis of CT26 subcutaneous tumor"}, {"measurement": "solid tumor disappearance (mice)", "setting": "[2]; n=5", "value": "three out of the five mice"}, {"measurement": "growth of 4T1 subcutaneous tumor", "setting": "[3]", "value": "significantly suppressed"}, {"measurement": "growth and lung metastasis of CT26 subcutaneous tumor", "setting": "[4]; BALB/c mice, intraperitoneal 10 mg/kg on days 4 and 7, day 14, FIG. 108", "value": "very strongly suppressed"}, {"measurement": "number of metastatic nodules in the lung", "setting": "[4]; day 14, control antibody group 14 nodules on average, FIG. 108B", "value": "0 to 3", "unit": "nodules"}, {"measurement": "disappearance of solid tumor (mice)", "setting": "[4]; n=5, intraperitoneal 10 mg/kg on days 4 and 7", "value": "three out of the five mice"}, {"measurement": "cells differentiating into adipocytes", "setting": "mouse bone marrow cells", "value": "decreased in number by the addition of #6-55 in a dose-dependent manner"}]}]}
